System: MS2 coat protein
Test: apparent KD of MS2 coat protein; designed switch direction (-1 OFF switch, 1 ON switch): 1; higher = weaker reporter binding
Procedure, shortened: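 Three titration conditions were used: no input, 200 uM small-molecule ligand, and an oligonucleotide input. In each, SNAP-549-labelled MS2 coat protein was raised from 0.7 or 1.5 nM, doubling, to 3 µM over designed RNA switches transcribed on Illumina chips by stalled E. coli RNA polymerase. Curve fits of normalised cluster fluorescence gave values whose per-design median over clusters is the apparent KD.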

[1] = Eterna round: R95, input ligand: FMN 200 uM
[2] = Eterna round: R95, input ligand: microRNA oligo, concentration not stated
[3] = Eterna round: R95, input ligand: none
[4] = input ligand: microRNA oligo, concentration not stated

| Sequence | apparent KD of MS2 coat protein [1] [nM] | apparent KD of MS2 coat protein [2] [nM] | apparent KD of MS2 coat protein [3] [nM] | apparent KD of MS2 coat protein (input ligand: FMN 200 uM) [nM] | apparent KD of MS2 coat protein [4] [nM] | apparent KD of MS2 coat protein (input ligand: none) [nM] |
| --- | --- | --- | --- | --- | --- | --- |
| GUAUCUACAGGUUGCGAUGCUCGUCUGAUACAUGAGGAUCACCCAUGUUAUAGCCCUGUGCUUGCGCAGGGCUGAUU [Sensor for hsa-mir-208a ( MOD of Tearor v.2 )] (puzzle: Sensor for hsa-mir-208a) | 136 | 33.4 | 116 | – | – | – |
| GUCCAACAUGAGGAUCACCCAUGUCGGGCGUGCACAGGAUAUCGCGCCGGGAAAGACCAGCGAGAAGGGUGAUCGA [Leriqu] (puzzle: Same State 1) | 139 | 51.4 | 57.5 | – | – | – |
| GUCGGUCUGUCGUGCUGAGGUGAUAGUUAACAUGAGGAUCACCCAUGUUGCUGUCGGGUCGUUGGGAGUUUUCUUCG [Modxample 118 - Jieux - Sensor for bsa-mir-208a] (Eterna round: R96, puzzle: Sensor for hsa-mir-208a) | – | – | – | 19.1 | 15.4 | 22.5 |
| GUGAAGAAUUAAGGAUAUCGAGUCAAGAUGUUAAACAUGAGGAUCACCCAUGUGGGUUGCGGUAUCGAGAAGGUAAAUUACGGG [salish99_SSNG2_r04_503] (Eterna round: R96, puzzle: Same State NG 2) | – | – | – | 34.6 | 27.6 | 33.2 |
| GUGCUACAUGAGGAUCACCCAUGUACAAAUGUACGAGGAUAUGCAUGGGCUAAUGCUGGUGCAGAAGGCGUAGCGC [Pin2Pin #7] (puzzle: Same State 1) | 18 | 33.9 | 41.5 | – | – | – |
| GUGGCGGGUUGAGGAUAUUGGUUGCAUAUGUUUAACAUGAGGAUCACCCAUGUGGGUUGCGGUUUCGAGAAGGUAGGUUGCUGG [salish99_SSNG2_r04_044] (Eterna round: R96, puzzle: Same State NG 2) | – | – | – | 155 | 95.3 | 140 |
| GUGGUCAGACAUGAGGAUCACCCAUGUGGAAUAAAUAACACACAGGAUAUCCAAUAUAAAAUAUAGGAGAAGGGUGGAUUGGUG (Eterna round: R96, puzzle: Same State NG 3) | – | – | – | – | 176 | – |
| GUGGUCAGACAUGAGGAUCACCCAUGUGGAAUAAAUAACAGACAGGAUAUGUAAUAUAGGAUAUAACAGAAGGGUCGAUUGGUG (Eterna round: R96, puzzle: Same State NG 3) | – | – | – | – | 64.4 | – |
| GUGGUCAGACAUGAGGAUCACCCAUGUGGAAUAAAUAACAGACAGGAUAUUAAAUAUAGGAUAUAUAAGAAGGGUCGAUUGGUG (Eterna round: R96, puzzle: Same State NG 3) | – | – | – | – | 78.5 | – |
| GUGGUCAGACAUGAGGAUCACCCAUGUGGAAUAAAUAACGGUGAGGAUAUUGAAUAUAGGAUAUACGAGAAGGCAUGAUUGGUG (Eterna round: R96, puzzle: Same State NG 3) | – | – | – | 208 | 114 | 123 |
| GUGGUCAGACAUGAGGAUCACCCAUGUGGAAUAAAUAAGGGACAGGAUAUCCAAUAUAGGAUAUAGGAGAAGGGUUGGUUGGUG (Eterna round: R96, puzzle: Same State NG 3) | – | – | – | 78.9 | 64.5 | 73.9 |
| GUGGUCAGACAUGAGGAUCACCCAUGUGGAAUAAAUAAGGGAGAGGAUAUAUAAUAUAGGAUAUAAUAGAAGGCUCGGUUGGUG (Eterna round: R96, puzzle: Same State NG 3) | – | – | – | – | 89.5 | – |
| GUGGUCAGACAUGAGGAUCACCCAUGUGGAAUAAAUAAGGUCAAGGAUAUUGAAUAUAGGAUAUACAAGAAGGUGAGGUUGGUG (Eterna round: R96, puzzle: Same State NG 3) | – | – | – | 140 | 94.9 | 115 |
| GUGGUGAAUUAAGGAUAUCGAGUCUAGAUGUUAAACAUGAGGAUCACCCAUGUGGGUUGCGGUGUCGAGAAGGUGAUUUACGGG [salish99_SSNG2_r04_509] (Eterna round: R96, puzzle: Same State NG 2) | – | – | – | 82.2 | 79.6 | 104 |
